In publication PMC2807882, “Conservation of DNA-binding specificity and oligomerisation properties within the p53 family”:

Columns and labels:
Drp53 = target: T1, Drp53 (Danio rerio, UniProt P79734 1-373); assay: fluorescence anisotropy direct titration; 25 mM sodium phosphate (purification buffer pH 7.2), 225 mM NaCl, 10% v/v glycerol, 5 mM DTT, 0.2 mg/mL BSA, 22 C; conditions: protein: recombinant; tags: N-terminal 6xHis-lipoyl-TEV tag, cleaved; chain copies: 4; label: 5'-Alexa488
T1 sequence: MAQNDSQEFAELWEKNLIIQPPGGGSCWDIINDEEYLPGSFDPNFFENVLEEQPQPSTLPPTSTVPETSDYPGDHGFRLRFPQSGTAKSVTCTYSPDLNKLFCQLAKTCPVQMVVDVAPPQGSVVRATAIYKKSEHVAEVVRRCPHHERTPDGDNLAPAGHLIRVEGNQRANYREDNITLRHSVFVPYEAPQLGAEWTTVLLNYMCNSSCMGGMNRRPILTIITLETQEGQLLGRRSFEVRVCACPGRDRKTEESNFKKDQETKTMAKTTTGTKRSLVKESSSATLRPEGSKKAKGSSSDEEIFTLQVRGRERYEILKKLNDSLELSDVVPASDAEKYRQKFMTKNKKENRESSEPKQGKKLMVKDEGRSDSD

Xlp53 = Xlp53 (Xenopus laevis, UniProt Q7T1D0 1-362); assay: anisotropy competition; 25 mM NaPi, 225 mM NaCl, 10% v/v glycerol, 5 mM DTT, 0.2 mg/mL BSA, 22°C; 20 nM labelled DNA; pH not stated for the binding assay; conditions: protein: recombinant; tags: N-terminal 6xHis-lipoyl-TEV tag, cleaved; chain copies: 4
Chain of Xlp53 (Q7T1D0 entry or part of it): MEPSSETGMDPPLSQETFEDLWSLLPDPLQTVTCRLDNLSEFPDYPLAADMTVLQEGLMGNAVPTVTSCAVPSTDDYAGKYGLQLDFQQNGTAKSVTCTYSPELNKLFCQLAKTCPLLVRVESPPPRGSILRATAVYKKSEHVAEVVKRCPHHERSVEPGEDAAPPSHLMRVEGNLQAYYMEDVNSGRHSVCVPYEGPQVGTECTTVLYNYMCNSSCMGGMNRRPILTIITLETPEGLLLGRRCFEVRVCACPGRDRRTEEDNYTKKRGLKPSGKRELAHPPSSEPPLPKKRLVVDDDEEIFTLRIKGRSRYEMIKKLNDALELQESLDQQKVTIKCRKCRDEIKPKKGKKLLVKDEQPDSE

Binder	Kd (Drp53) [nM]	Kd (Xlp53)
Ref_Alexa488 (dsDNA) DNA 1: GGACATGTCCGGACATGTCC DNA 2: GGACATGTCCGGACATGTCC	63.1	
Ref competitor (dsDNA) DNA 1: CGCGGACATGTCCGGACATGTCCCGC DNA 2: GCGGGACATGTCCGGACATGTCCGCG		-7.08 log10(M)
